Assay results as given in patent US20250368742A1 (D2M BIOTHERAPEUTICS, published 2025).
Read-outs that look alike come from different tables or passages of the source.

T1: MICA002-ECD-HISAvi (human, UniProt Q29983 24-308)
T1 construct: also called MICA002 polypeptide
T1 chain: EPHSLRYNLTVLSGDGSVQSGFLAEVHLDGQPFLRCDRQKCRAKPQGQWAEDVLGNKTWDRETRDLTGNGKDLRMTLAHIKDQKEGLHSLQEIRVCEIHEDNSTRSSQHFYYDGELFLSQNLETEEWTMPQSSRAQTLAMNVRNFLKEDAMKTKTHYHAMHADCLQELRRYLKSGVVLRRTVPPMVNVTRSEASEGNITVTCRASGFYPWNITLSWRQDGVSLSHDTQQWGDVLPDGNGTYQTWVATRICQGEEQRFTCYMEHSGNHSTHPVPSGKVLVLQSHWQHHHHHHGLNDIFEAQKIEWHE

T2: MICA004-ECD-HISAvi (human)
T2 construct: also called MICA004 polypeptide
T2 chain: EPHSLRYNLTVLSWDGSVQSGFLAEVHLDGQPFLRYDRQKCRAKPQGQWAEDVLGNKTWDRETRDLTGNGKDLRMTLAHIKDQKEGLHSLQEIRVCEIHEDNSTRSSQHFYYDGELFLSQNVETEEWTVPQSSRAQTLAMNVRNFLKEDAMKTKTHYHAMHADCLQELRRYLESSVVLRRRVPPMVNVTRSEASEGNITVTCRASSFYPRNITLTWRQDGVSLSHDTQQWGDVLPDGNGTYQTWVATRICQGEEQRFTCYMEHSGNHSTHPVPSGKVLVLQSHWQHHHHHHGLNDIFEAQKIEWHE

T3: MICA008-ECD-HISAvi (human)
T3 construct: Two sources under one name in the two kinetic assays; also called MICA008 polypeptide
T3 chain: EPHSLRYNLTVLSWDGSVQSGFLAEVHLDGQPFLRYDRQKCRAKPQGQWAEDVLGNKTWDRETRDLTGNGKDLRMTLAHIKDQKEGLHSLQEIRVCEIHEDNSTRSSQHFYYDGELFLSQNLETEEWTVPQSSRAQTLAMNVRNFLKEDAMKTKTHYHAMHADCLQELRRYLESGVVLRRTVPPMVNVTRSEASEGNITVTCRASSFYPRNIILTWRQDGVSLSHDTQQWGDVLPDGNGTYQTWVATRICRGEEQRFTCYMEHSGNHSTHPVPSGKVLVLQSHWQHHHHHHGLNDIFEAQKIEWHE

T4: MICB005-ECD-HISAvi (human, UniProt Q29980 24-309)
T4 construct: Two sources under one name in the two kinetic assays; also called MICB005 polypeptide
T4 sequence: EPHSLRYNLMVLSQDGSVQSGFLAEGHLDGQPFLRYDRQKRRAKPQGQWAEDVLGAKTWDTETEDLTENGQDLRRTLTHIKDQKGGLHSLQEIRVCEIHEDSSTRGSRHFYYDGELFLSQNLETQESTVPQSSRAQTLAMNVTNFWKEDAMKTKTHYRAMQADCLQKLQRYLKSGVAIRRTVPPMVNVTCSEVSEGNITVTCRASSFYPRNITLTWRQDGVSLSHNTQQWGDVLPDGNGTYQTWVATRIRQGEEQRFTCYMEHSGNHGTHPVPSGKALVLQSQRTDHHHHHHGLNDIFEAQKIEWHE

T5: human MICA002 on cells (human)
T5 chain: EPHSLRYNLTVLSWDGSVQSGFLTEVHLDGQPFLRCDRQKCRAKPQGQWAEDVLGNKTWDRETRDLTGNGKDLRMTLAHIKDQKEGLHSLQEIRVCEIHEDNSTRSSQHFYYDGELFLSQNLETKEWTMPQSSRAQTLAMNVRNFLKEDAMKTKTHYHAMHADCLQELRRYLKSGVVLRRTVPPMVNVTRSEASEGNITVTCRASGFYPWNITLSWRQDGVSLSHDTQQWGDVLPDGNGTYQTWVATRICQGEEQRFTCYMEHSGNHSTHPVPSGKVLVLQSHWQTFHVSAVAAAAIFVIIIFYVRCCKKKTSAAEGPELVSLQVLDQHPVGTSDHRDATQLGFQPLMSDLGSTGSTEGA


Tests used:
human MICA004 on cells = target: T6, human MICA004 on cells (human); assay: flow cytometry, CHO-MICA004 cells
T6 construct: whole, on cells; also called CHO-MICA004; C1R-MICA004

human MICA008 on cells [1] = target: T7, human MICA008 on cells (human); assay: flow cytometry, CHO-MICA008 cells
T7 construct: whole, on cells; also called CHO-MICA008; C1R-MICA008
T7 sequence (Q29983 whole entry): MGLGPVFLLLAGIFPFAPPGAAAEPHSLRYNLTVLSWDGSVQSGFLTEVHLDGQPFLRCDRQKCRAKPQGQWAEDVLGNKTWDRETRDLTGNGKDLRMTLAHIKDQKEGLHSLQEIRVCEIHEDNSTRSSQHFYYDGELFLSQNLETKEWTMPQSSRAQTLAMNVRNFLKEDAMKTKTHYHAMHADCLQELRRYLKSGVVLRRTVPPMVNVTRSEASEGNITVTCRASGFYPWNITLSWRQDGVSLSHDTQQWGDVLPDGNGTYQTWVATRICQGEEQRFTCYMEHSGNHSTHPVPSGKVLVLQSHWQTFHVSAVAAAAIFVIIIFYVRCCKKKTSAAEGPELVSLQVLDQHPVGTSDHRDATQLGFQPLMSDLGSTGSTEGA

MICA002-ECD-HISAvi = target: T1, MICA002-ECD-HISAvi; assay: BLI (GatorPrime); antibody on anti-hIgG Fc probe, monomeric antigen in solution;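 note: binding kinetics of anti-MICA/B antibodies measured by biolayer interferometry, with dissociation followed for about 10 min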
Protocol: (§1) The binding kinetics of the antibodies were also measured using the GatorPrime BLI (Biolayer Interferometry) system (Gator Bio, USA). Specifically, the anti-MICA/B antibodies were loaded with HFC (Anti-hIgG Fc, Gator Bio, Cat #: 160003). […] The dissociation kinetics were monitored for approximately 10 minutes. The probes were regenerated between binding cycles with Regeneration Buffer (Gator Bio, Cat #: 120012). Binding kinetics were analyzed using software supplied by the manufacturer.

MICA004-ECD-HISAvi [2] = target: T2, MICA004-ECD-HISAvi; assay: as above
Protocol: as §1

MICA008-ECD-HISAvi = target: T3, MICA008-ECD-HISAvi; assay: as above
Protocol: as §1

MICB005-ECD-HISAvi = target: T4, MICB005-ECD-HISAvi; assay: as above
Protocol: as §1

MICA009Avi = target: T8, MICA009Avi (human); assay: as above
T8 construct: extracellular domain
Protocol: as §1

[3] = target: T9, Cynomolgus monkey MICA (cynoMICA) (Cynomolgus monkey (Macaca fascicularis)); assay: as above
T9 construct: also called cyno monkey MICA; cyno MIC protein
Protocol: as §1

MICA004-ECD-HISAvi [4] = target: T2, MICA004-ECD-HISAvi; assay: SPR (Carterra); antibody captured by anti-human Fc, monomeric ECD antigen injected;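 note: dissociation phase followed for about 10 min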
Protocol: The dissociation kinetics were monitored for approximately 10 minutes. The chip surface was regenerated between binding cycles with 10 mM glycine HCl, pH 1.7. Binding kinetics were analyzed using software supplied by the manufacturer.

human MICB005 on cells [5] = target: T10, human MICB005 on cells (human); assay: flow cytometry on CHO-MICB005 cells; column HSA_1w (1 week in human serum at 37 C)
T10 construct: whole, on cells; also called CHO-MICB005; C1R-MICB005
Protocol: (§2) The plate was centrifuged, and cells were washed with PBS three times. […] After incubation for 30 minutes at room temperature, cells were washed with PBS twice. Signals of APC were determined by flow cytometry (Attune™ CytPix™, ThermoFisher) within the population of live cells (viability dye PI negative).
(§3) The EC50 values were calculated based on non-linear fitting curves by GraphPad Prism software.

human MICB005 on cells [6] = target: T10, human MICB005 on cells; assay: flow cytometry on CHO-MICB005 cells; column Control_1w (control of the 1-week experiment)
Protocol: as §2, §3

human MICB005 on cells [7] = target: T10, human MICB005 on cells; assay: flow cytometry on CHO-MICB005 cells; column Control_2w (control of the 2-week experiment)
Protocol: as §2, §3

human MICA002 on cells = target: T5, human MICA002 on cells; assay: flow cytometry, CHO-MICA002 cells
human MICA008 on cells [8] = target: T7, human MICA008 on cells; assay: flow cytometry, CHO-MICA008 cells; remark: listed apart in the source
human MICB005 on cells [9] = target: T10, human MICB005 on cells; assay: flow cytometry, CHO-MICB005 cells

Row | EC50 (human MICA004 on cells) [µg/mL] | EC50 (human MICA008 on cells [1]) [µg/mL] | Kd (MICA002-ECD-HISAvi) [nM] | Kd (MICA004-ECD-HISAvi [2]) [nM] | Kd (MICA008-ECD-HISAvi) [nM] | Kd (MICB005-ECD-HISAvi) [nM] | Kd (MICA009Avi) [nM] | Kd [3] [nM] | Kd (MICA004-ECD-HISAvi [4]) [nM] | EC50 (human MICB005 on cells [5]) [µg/mL] | EC50 (human MICB005 on cells [6]) [µg/mL] | EC50 (human MICB005 on cells [7]) [µg/mL] | EC50 (human MICA002 on cells) [µg/mL] | EC50 (human MICA008 on cells [8]) [µg/mL] | EC50 (human MICB005 on cells [9]) [µg/mL] | Binder
1 | 0.89 | 0.272 | 1.35 | 1.08 | 0.295 | 2.19 | 0.936 | 14.3 | 4.05 | 0.804 | 0.836 | 0.956 |  |  |  | 3F9 (antibody, human IgG1, kappa, V domains shown, also called benchmark 3F9) VH: QVQLVESGGGLVKPGGSLRLSCAASGFTFSNYAMSWIRQAPGKGLEWVSYISPGGDYIYYADSVKGRFTISRDNAKNSLYLQMNSLRAEDTAVYYCTTDRRHYGSYAMDYWGQGTLVTVSS VL: DIVMTQSPLSLPVTPGEPASISCRSSKSLLHSNLNTYLYWFLQKPGQSPQILIYRMSNLASGVPDRFSGSGSGTAFTLKISRVEAEDVGVYYCMQHLEYPFTFGPGTKLEIKR
2 | 0.193 | 0.06 | 0.0757 | 0.101 | 0.026 | 0.195 | 0.11 | 5.2 | 1.35 | 0.229 | 0.237 | 0.264 | 0.209 | 0.04 | 0.142 | 1D5 (antibody, human IgG1, kappa, V domains shown, also called ID5) VH: EIQLQQSGPELVKPGASVKVSCKASGYAFTSQNIYWVKQSHGKSLEWIGYIEPYNVVPMYNPKFKGKATLTVDKSSSSAYIHLNSLTSEDSAIYYCARSGSSNFDYWGQGTTLTVSS VL: EIILTQSPTTMAASPGEKITITCSASSSISSHYLHWYQQKSGFSPKLLIYRTSNLASGVPARFSGSGSGTSYSLTIGTMEAEDVATYYCQQGSSLPLTFGAGTKVEIKR
